# Numbering of substitutions follows the chain as printed. Names and notes keep the numbering of the source. Read-outs that look alike come from different tables or passages of the source.
# B1: P106S: well-studied EPSPS single mutant P106S (protein)
# chain: AGAEEIVLQPIKEISGTVKLPGSKSLSNRILLLAALSEGTTVVDNLLNSEDVHYMLGALRTLGLSVEADKAAKRAVVVGCGGKFPVEDSKEEVQLFLGNAGTAMRSLTAAVTAAGGNATYVLDGVPRMRERPIGDLVVGLKQLGADVDCFLGTDCPPVRVNGIGGLPGGKVKLSGSISSQYLSALLMAAPLALGDVEIEIIDKLISIPYVEMTLRLMERFGVKAEHSDSWDRFYIKGGQKYKSPKNAYVEGDASSASYFLAGAAITGGTVTVEGCGTTSLQGDVKFAEVLEMMGAKVTWTETSVTVTGPPREPFGRKHLKAIDVNMNKMPDVAMTLAVVALFADGPTAIRDVASWRVKETERMVAIRTELTKLGASVEEGPDYCIITPPEKLNVTAIDTYDDHRMAMAFSLAACAEVPVAIRDPGCTRKTFPDYFDVLSTFVKN
# B2: TIPS-P126S: maize EPSPS variant, SEQ ID NO:15 (protein)
# chain: B1 chain with T102I, P126S
# modifications: Zea mays
# B3: TIPS-P126L: maize EPSPS variant, SEQ ID NO:22 (protein)
# chain: B1 chain with T102I, P126L
# modifications: Zea mays
# B4: TIPS-1177V: maize EPSPS variant, SEQ ID NO:21 (protein)
# chain: B1 chain with T102I, I177V
# modifications: Zea mays
# B5: T102I-P126S-K296R: maize EPSPS variant, SEQ ID NO:12 (protein)
# chain: B1 chain with T102I, S106P, P126S, K296R
# modifications: Zea mays
# B6: P106S-K296R: P106S scaffold carrying ported mutation(s), as worded in b196 (protein)
# chain: B1 chain with K296R
# B7: P106S-P126S-K296R: maize EPSPS variant, SEQ ID NO:13 (protein)
# chain: B1 chain with P126S, K296R
# modifications: Zea mays
# B8: T102I: well-studied EPSPS single mutant T102I (protein)
# chain: B1 chain with T102I, S106P
# B9: TIPS-V66L-M104L: maize EPSPS variant, SEQ ID NO:17 (protein)
# chain: B1 chain with V66L, T102I, M104L
# modifications: Zea mays
# B10: TIPS-K296R: maize EPSPS variant, SEQ ID NO:16 (protein)
# chain: B1 chain with T102I, K296R
# modifications: Zea mays
# Tests used:
# [1] = system: S. cerevisiae strain sKR-024; assay: Growth of synthetic yeast strain sKR-024 expressing EPSPS variants with or without glyphosate; format: cell-based, Saccharomyces cerevisiae; details: for growth in yeast minimal media without glyphosate: 0 mM glyphosate; for order of glyphosate tolerance: 5 mM glyphosate, FIG. 1 Panel C; for glyphosate tolerance in synthetic yeast host: mutants isolated from directed evolution
# Procedure: EPSPS variants were re-cloned into a clean p416-Core1p backbone and transformed into strain sKR-024 as described above. Colonies were then picked in triplicate into YSC-Ura-Leu and outgrown for 2 days at 30° C. Cultures were then diluted back to OD 0.001 in yeast minimal media (YMM) containing varying amounts of glyphosate as indicated. Growth rate measurements were then obtained using an Infinite M200 PRO microplate reader (Tecan, Männedorf, Switzerland) with incubation at 30° C. for 72-120 hours depending on growth rate of selected variants.
# To determine if this system could further corroborate observations from previous literature, the well-studied EPSPS mutants T102I and P106S, and the combined double mutant TIPS (T102I-P106S) were generated and complemented into this yeast system. These mutations were reported to result in varying degrees of glyphosate resistance.
# Having established low copy number and weak promoter expression of EPSPS variants, it was sought to recharacterize phenotypes under field conditions that are used in planta. […] It has been reported previously that under standard glyphosate foliar application, 0.3 mM or more of glyphosate (gly) can accumulate in a plant's root nodules and meristems. […] These trends support reported literature of mutants P106S and TIPS grown in various plant hosts. As a result, the present synthetic yeast model system closely resembles in planta observations and thus can be used to select for dual-trait EPSPS variants aimed at both enzymatic efficiency and glyphosate resistance.
# Select mutants isolated from the final directed evolution campaign with the improved selection strategy were further evaluated in assorted glyphosate concentrations to determine growth characteristics. Mutants isolated from an EPSPS background were evaluated in media containing 0 mM and 0.25 mM glyphosate with the latter being the concentration at which wild-type EPSPS cannot grow after 100 hours. […] The non-glyphosate mono selection highlighted in blue represents mutations resulting from 5 subcultures in 0 mM glyphosate. The low glyphosate dual selection highlighted in light green represents mutants resulting from an additional subculture into 0.5 mM glyphosate. Lastly, the high glyphosate dual selection highlighted in dark green represent mutations isolated after subcultures in increasing levels of glyphosate, up to 10 mM.
# maize EPSPS = assay: In vitro characterization of EPSPS mutants (EnzChek phosphate assay, Michaelis-Menten kinetics, glyphosate Ki); format: biochemical, Zea mays; details: for Km: apparent Km, mean±S.E.; for Ki: inhibitory constant for glyphosate, no unit in table (around 800 μM)
# Procedure: Activity was determined by quantifying release of Pi, coupled to a reaction with MESG, catalyzed by purine-nucleoside phosphorylase using the EnzChek Phosphate Assay Kit from Invitrogen, first published in 1992. 95 μL of master mix was added to each well and 5 μL of the varied substrate dilutions were multi-channeled into the plate to start the reaction simultaneously for all conditions. Absorbance measurements at 360 nm were taken every 10 seconds for 3 minutes to capture the initial reaction rate of each condition. Varying levels of substrate were added to generate the resulting reaction rate curves. Each condition was performed in triplicate. Ki was determined as previously described (Lu, et al., Protein Engineering, Design and Selection 30:395-399 (2017)). Data was fit to the Michaelis-Menten kinetics equation and were also validated through GraphPad Prism's built-in function for each variant.
# For protein expression of EPSPS and its variants, E. coli BL21 (DE3) was used as the expression host. Electrocompetent cells were transformed with the corresponding constructed plasmids, pET28a (+) with selected EPSPS variants (wild-type, TIPS, TIPS P126S, TIPS K296R, TIPS P126S/K296R). A single colony of an E. coli BL21 (DE3) strain harboring one of the constructed plasmids was inoculated into 2 mL of Luria Bertani broth (LB) medium with 50 μg/mL kanamycin and grown overnight at 37° C./225 rpm. The overnight-grown culture (using 100 μl) was scaled up with 2000-fold dilution in a 500-mL triple baffled shake flask and grown to a cell density of 0.8 (optical density [OD600]) at 37° C./225 rpm. Protein expression was induced by adding 0.2 mM of isopropyl β-D-1-thiogalactopyranoside (IPTG) and cells were cultured for 24 hours at 20° C./225 rpm. The induced cell culture was harvested by centrifugation at 4,000 g and 4° C. for 20 mins. Cell pellets were then resuspended in 25 mL of Dulbecco's Phosphate Buffered Saline (DPBS) (Thermo Fisher Scientific, Waltham, MA) pH 7.0 buffer containing 10 mM imidazole, 1 g/L of lysozyme and 5 μl of Pierce™ Universal Nuclease (Thermo Fisher Scientific, Waltham, MA), followed by mixing on a rocker for 30 mins at 4° C. Subsequently, cells were lysed by sonication and the resulting cell lysate was centrifuged at 14,000 g and 4° C. for 20 minutes to obtain the supernatant that contains soluble proteins. Target proteins from the supernatant was purified by HisPur™ Ni-NTA Resin (Thermo Fisher Scientific, Waltham, MA) according to the manufacturer's instruction.
# The eluate was dialyzed with 3C protease added to the dialysis cassette, into the appropriate buffer followed by size-exclusion fast protein liquid chromatography. All EPSP synthase variants were stored in 20 mM Tris (pH 7.5), 100 mM NaCl and 10 mM β-mercaptoethanol. The protein concentration was then determined by using the Coomassie Plus Bradford Assay kit (Thermo Fisher Scientific) and the Infinite M200 PRO microplate reader (Tecan, Männedorf, Switzerland) to measure the absorbance of assay mixtures. The presence and purity of the purified proteins were assessed by sodium dodecyl sulfate-polyacrylamide gel electrophoresis.
# Enzymatic activity, including inhibitory constant Ki, for EPSPS and TIPS closely corroborate values determined by previous reports. Mutations P126S and K296R have beneficial effects on their own to both Km and kcat and are additive when combined, similar to the observations of the in vivo growth characterization. Furthermore, the high Ki is maintained for each of the variants, showing similar or slightly higher values of around 800 μM compared to the starting point, TIPS. These findings confirm the phenotype endowed by the dual-trait selection pressure employed during the directed evolution campaigns. Kinetic parameters of maize EPSPS with mutations discovered through directed evolution. In Table 4, initial velocity data were measured in triplicate and fit to the Michaelis-Menten equation. […]
# transgenic maize plants = assay: Maize transformation with glyphosate selection, plantlet recovery and quality checks; format: in vivo, Zea mays; details: for Number of young plants passing quality control checks: in vivo; for Number of plantlets generated: under glyphosate selection, same amount of starting material
# Source text: Maize was used as a model system to test the functionality of the EPSPS variants because of detailed previous characterization of glyphosate tolerance in maize and a suitable transgenic plant generation protocol that relies on glyphosate. Plant transformation vectors were generated in which the native maize EPSPS sequence was used, which includes the native gene promoter elements, the native introns and exons and the native 3′ untranslated region and introduced mutations that corresponded to each of the selected amino acid changes. The native sequence was used to mimic as closely as possible how the selected EPSPS variants would perform if the variants were introduced directly in the genome without the help of strong expression elements. The following variants were selected for testing in a transgenic maize system: TIPS (as a control); TIPS-P126S-M217L-K296R; TIPS-P126S-K296R; T102I-P126S-K296R (where only the T102I change is present); P106S-P126S-K296R (where only the P106S change is present); and P126S-K296R (where neither of the TIPS changes are present).
# Transgenic maize plants that expressed each of the six EPSPS variants were generated to determine if the variants conferred glyphosate tolerance to plants. The full DNA sequence encoding TIPS EPSPS (SEQ ID NO:1) was cloned from maize genomic DNA. In this sequence, the promoter and 5′ UTR are nucleotides 1:2556; the chloroplast transit peptide sequence is nucleotides 2557:2742; EXON 1 is nucleotides 2743:2856; INTRON 1 is nucleotides 2857:3384; EXON 2 is nucleotides 3385:3626; INTRON 2 is nucleotides 3627:3725; EXON 3 is nucleotides 3726:3879; INTRON 3 is nucleotides 3880:4152; EXON 4 is nucleotides 4153:4367; INTRON 4 is nucleotides 4368:4877; EXON 5 is nucleotides 4878:4995; INTRON 5 is nucleotides 4996:5155; EXON 6 is nucleotides 5156:5366; INTRON 6 is nucleotides 5367:5446; EXON 7 is nucleotides 5447:5508; INTRON 7 is nucleotides 5509:5617; EXON 8 is nucleotides 5618:5836; and the 3′ UTR is nucleotides 5837:6368. Mutations were then introduced into the EPSPS coding sequence in order to produce each of the six EPSPS variants to be tested. These mutated full genomic DNA sequences were then each cloned as a single expression cassette into plant transformation vectors.
# Agrobacterium tumefaciens-mediated plant transformation was performed using methods known in the art. Glyphosate selection was used to select for transgenic events containing the transgene of interest and further screened for only those EPSPS variants that provided effective glyphosate tolerance in a plant cell. While all six EPSPS variants began the transformation process with the same amount of starting maize cellular material, there were differences in the number of small plantlets recovered that were capable of being transplanted to greenhouse soil media (Table 4). Transgenic events were further analyzed to determine transgene copy number. Healthy events with single copy of the transgene of interest were grown in the greenhouse soil media. Only three of the six EPSPS variants had more than one plant surviving. Up to twenty-five of these developing R0 plants were transplanted to larger pots and allowed to grow to maturity for seed collection in the greenhouse.
# [2] = PEP at saturation (roughly 10 times its Km), read-out: Km (S3P)
# [3] = S3P at saturation (roughly 10 times its Km), read-out: Km (PEP)
molecule,measurement,setting,value
B1,growth in yeast minimal media without glyphosate,[1],grew very similarly
same,growth in glyphosate,"[1]; 0.5 mM glyphosate, Core1p promoter",slightly higher growth than EPSPS after 80 hours
same,growth in glyphosate,[1]; 5 mM glyphosate (high levels),no growth
same,order of glyphosate tolerance,[1],P106S<T102I<TIPS
B2,Km,maize EPSPS; [2],28.2 µM
same,Km,maize EPSPS; [3],13.7 µM
same,Ki,maize EPSPS,859 µM
B3,glyphosate tolerance in synthetic yeast host,[1],moderate glyphosate tolerance
B4,glyphosate tolerance in synthetic yeast host,[1],moderate glyphosate tolerance
B5,Number of young plants passing quality control checks,transgenic maize plants,1
same,Number of plantlets generated,transgenic maize plants,69
B6,growth in glyphosate,[1]; 5 mM glyphosate (high levels),observable growth
B7,Number of young plants passing quality control checks,transgenic maize plants,0
same,Number of plantlets generated,transgenic maize plants,39
B8,order of glyphosate tolerance,[1],P106S<T102I<TIPS
B9,growth in yeast minimal media without glyphosate,[1],high growth in non-glyphosate
same,glyphosate tolerance in synthetic yeast host,[1],high glyphosate tolerance
B10,Km,maize EPSPS; [2],16.5 µM
same,Km,maize EPSPS; [3],24 µM
same,Ki,maize EPSPS,841 µM

# — US20260275304A1, “METHODS AND COMPOSITIONS FOR GLYPHOSATE TOLERANCE IN PLANTS” (Monsanto Technology LLC, priority 2023, published 2026)
